B1: σ1 of reovirus strain rsT3D-σ1T249I (parent), on purified virions [mammalian orthoreovirus, strain type 3 Dearing GST-JAM-A ectodomain fusion protein [not stated] (parent)
chain 1: MDPRLREEVVRLIIALTSDNGASLSKGLESRVSALEKTSQIHSDTILRITQGLDDANKRIIALEQSRDDLVASVSDAQLAISRLESSIGALQTVVNGLDSSVTQLGARVGQLETGLAELRVDHDNLVARVDTAERNIGSLTTELSTLTLRVTSIQADFESRISTLERTAVTSAGAPLSIRNNRMTMGLNDGLTLSGNNLAIRLPGNTGLNIQNGGLQFRFNTDQFQIVNNNLTLKTTVFDSINSRIGAIEQSYVASAVTPLRLNSSTKVLDMLIDSSTLEINSSGQLTVRSTSPNLRYPIADVSGGIGMSPNYRFRQSMWIGIVSYSGSGLNWRVQVNSDIFIVDDYIHICLPAFDGFSIADGGDLSLNFVTGLLPPLLTGDTEPAFHNDVVTYGAQTVAIGLSSGGAPQYMSKNLWVEQWQDGVLRLRVEGGGSITHSNSKWPAMTVSYPRSFT
chain 2: SVTVHSSEPEVRIPENNPVKLSCAYSGFSSPRVEWKFDQGDTTRLVCYNNKITASYEDRVTFLPTGITFKSVTREDTGTYTCMVSEEGGNSYGEVKVKLIVLVPPSKPTVNIPSSATIGNRAVLTCSEQDGSPPSEYTWFKDGIVMPTNPKSTRAFSNSSYVLNPTTGELVFDPLSASDTGEYSCEARNGYGTPMTSNAVRMEAVERNVGV

Variants of: B1
Experiment: SPR
Settings: with GST-JAM-A ectodomain fusion protein, GST-JAM-A captured on biosensor surface, read off a plot
[1] = 6×1012 (green) particles/ml virus, parent: 62
[2] = 8×1012 (orange) particles/ml virus, parent: 98
[3] = 1013 (red) particles/ml virus, parent: 205

Row | Variant | response [1] | response [2] | response [3]
1 | chain 1 G381A | 17 RU | 28 RU | 36 RU
2 | chain 1 E384A | 140 RU | 280 RU | 460 RU

Reference: article PMC2588538, “Structure of Reovirus σ1 in Complex with Its Receptor Junctional Adhesion Molecule-A” (PLoS Pathogens, 2008)
